Reference: US20150344570A1 (published 2015)

B1: GpH7-B3 variant S298_04F/GpL16-k0 (antibody, human IgG1, kappa)
heavy: not shown
light: DIVMTQSPLSLPVTPGEPASISCQASESLVHSNRNTYLHWYLQKPGQSPQLLIYKVSNRFSGVPDRFSGSGSGTDFTLKISRVEAEDVGVYYCSQNTHVPPTFGQGTKVEIERTVAAPSVFIFPPSDEQLKSGTASVVCLLNNFYPREAKVQWKVDNALQSGNSQESVTEQDSKDSTYSLSSTLTLSKADYEKHKVYACEVTHQGLSSPVTKSFNRGEC
notes: also called Ho Ab S298_04F
B2: GpH7-B3 variant S324_20W/GpL16-k0 (antibody, human IgG1, kappa)
heavy: not shown
light: B1 light
notes: also called Ho Ab S324_20W
B3: GpH7-B3 variant S298_20W/GpL16-k0 (antibody, human IgG1, kappa)
heavy: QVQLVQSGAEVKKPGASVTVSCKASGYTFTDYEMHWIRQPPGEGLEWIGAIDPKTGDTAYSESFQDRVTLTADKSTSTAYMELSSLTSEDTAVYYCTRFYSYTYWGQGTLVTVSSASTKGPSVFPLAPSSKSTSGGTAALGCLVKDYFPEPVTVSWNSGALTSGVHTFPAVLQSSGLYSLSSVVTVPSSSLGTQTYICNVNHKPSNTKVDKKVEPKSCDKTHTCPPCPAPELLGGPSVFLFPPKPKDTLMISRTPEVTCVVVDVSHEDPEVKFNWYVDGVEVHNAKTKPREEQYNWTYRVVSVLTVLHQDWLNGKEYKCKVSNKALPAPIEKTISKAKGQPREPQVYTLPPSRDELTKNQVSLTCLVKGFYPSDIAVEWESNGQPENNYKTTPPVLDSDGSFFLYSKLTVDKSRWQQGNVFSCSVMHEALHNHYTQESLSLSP
light: B1 light
notes: also called Ho Ab S298_20W
B4: GpH7-B3 variant T335_06M/GpL16-k0 (antibody, human IgG1, kappa)
heavy: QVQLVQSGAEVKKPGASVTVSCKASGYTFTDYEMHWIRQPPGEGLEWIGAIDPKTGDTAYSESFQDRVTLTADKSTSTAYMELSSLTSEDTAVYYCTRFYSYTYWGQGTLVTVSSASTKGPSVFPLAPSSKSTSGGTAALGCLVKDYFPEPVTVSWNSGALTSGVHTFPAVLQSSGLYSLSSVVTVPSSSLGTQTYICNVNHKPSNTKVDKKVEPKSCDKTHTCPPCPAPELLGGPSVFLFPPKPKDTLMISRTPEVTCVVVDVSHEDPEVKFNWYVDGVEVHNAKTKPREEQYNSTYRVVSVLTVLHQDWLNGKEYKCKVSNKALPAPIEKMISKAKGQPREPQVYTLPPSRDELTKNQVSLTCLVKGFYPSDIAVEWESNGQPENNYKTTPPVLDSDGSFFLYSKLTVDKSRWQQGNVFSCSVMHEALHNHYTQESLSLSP
light: B1 light
notes: also called Ho Ab T335_06M
B5: GpH7-A5/GpH7-B3 variant P271_12R/GpL16-k0 (antibody, human IgG1, kappa)
heavy 1: not shown
heavy 2: not shown
light: B1 light
notes: also called He Ab P271_12R
B6: GpH7-B3 variant S337_04F/GpL16-k0 (antibody, human IgG1, kappa)
heavy: not shown
light: B1 light
notes: also called Ho Ab S337_04F
B7: GpH7-B3 variant S337_07I/GpL16-k0 (antibody, human IgG1, kappa)
heavy: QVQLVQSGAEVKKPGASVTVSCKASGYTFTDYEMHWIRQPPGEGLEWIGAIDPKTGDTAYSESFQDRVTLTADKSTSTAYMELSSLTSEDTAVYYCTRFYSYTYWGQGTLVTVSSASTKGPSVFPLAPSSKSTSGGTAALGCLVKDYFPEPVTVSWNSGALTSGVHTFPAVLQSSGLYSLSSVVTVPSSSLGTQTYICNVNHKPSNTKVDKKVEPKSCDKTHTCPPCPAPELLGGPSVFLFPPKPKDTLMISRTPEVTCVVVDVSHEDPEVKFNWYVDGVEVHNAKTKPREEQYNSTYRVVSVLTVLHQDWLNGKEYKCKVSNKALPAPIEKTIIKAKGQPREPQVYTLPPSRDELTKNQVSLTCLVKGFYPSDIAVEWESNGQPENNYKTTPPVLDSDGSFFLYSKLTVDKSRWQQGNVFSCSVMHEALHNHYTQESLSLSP
light: B1 light
notes: also called Ho Ab S337_07I
B8: GpH7-B3 variant S324_18N/GpL16-k0 (antibody, human IgG1, kappa)
heavy: not shown
light: B1 light
notes: also called Ho Ab S324_18N
B9: GpH7-B3 variant S298_07I/GpL16-k0 (antibody, human IgG1, kappa)
heavy: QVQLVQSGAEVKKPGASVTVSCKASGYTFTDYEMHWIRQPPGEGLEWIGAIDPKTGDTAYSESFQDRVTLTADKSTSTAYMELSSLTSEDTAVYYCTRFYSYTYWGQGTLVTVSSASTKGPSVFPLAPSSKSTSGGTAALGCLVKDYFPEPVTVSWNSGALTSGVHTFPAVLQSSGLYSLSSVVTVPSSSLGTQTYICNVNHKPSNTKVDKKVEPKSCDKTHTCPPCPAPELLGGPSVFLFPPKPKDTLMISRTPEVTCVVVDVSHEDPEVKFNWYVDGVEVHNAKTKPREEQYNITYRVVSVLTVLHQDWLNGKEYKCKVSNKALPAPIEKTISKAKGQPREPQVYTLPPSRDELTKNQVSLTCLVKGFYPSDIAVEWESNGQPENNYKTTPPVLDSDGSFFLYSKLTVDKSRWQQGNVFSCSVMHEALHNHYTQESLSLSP
light: B1 light
notes: also called Ho Ab S298_07I
B10: GpH7-B3 variant S337_09D/GpL16-k0 (antibody, human IgG1, kappa)
heavy: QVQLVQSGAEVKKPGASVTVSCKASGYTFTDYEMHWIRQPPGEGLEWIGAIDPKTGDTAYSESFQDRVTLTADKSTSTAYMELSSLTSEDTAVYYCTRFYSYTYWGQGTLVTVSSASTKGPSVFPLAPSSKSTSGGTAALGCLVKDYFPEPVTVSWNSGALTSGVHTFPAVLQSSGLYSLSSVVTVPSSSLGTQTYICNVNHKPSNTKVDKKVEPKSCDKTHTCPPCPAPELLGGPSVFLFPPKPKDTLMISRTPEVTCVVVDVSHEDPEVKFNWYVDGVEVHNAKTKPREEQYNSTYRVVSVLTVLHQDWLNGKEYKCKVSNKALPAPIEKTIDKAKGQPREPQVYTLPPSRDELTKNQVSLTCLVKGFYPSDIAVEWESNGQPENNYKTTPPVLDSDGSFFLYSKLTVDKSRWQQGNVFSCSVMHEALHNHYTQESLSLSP
light: B1 light
notes: also called Ho Ab S337_09D
B11: GpH7-B3 variant V266_19Q/GpL16-k0 (antibody, human IgG1, kappa)
heavy: not shown
light: B1 light
notes: also called Ho Ab V266_19Q
B12: GpH7-A5/GpH7-B3 variant P271_11K/GpL16-k0 (antibody, human IgG1, kappa)
heavy 1: not shown
heavy 2: not shown
light: B1 light
notes: also called He Ab P271_11K
B13: GpH7-B3 variant S298_06M/GpL16-k0 (antibody, human IgG1, kappa)
heavy: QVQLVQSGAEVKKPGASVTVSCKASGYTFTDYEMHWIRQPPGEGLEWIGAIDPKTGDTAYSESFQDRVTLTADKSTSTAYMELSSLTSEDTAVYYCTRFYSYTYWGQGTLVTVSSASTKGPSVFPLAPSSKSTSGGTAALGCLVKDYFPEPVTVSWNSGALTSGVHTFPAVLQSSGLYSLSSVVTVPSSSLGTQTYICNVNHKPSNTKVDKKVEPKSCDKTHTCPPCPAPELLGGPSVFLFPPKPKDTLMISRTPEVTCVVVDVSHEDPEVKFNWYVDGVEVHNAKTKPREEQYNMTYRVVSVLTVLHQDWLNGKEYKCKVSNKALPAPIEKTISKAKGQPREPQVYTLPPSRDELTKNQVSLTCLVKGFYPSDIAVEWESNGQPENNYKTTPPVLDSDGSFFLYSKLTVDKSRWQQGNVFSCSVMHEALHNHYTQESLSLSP
light: B1 light
notes: also called Ho Ab S298_06M
B14: GpH7-B3 variant S324_03V/GpL16-k0 (antibody, human IgG1, kappa)
heavy: not shown
light: B1 light
notes: also called Ho Ab S324_03V
B15: GpH7-A5/GpH7-B3 variant P271_07I/GpL16-k0 (antibody, human IgG1, kappa)
heavy 1: not shown
heavy 2: not shown
light: B1 light
notes: also called He Ab P271_07I
B16: GpH7-B3 variant T335_07I/GpL16-k0 (antibody, human IgG1, kappa)
heavy: not shown
light: B1 light
notes: also called Ho Ab T335_07I
B17: GpH7-B3 variant S337_15Y/GpL16-k0 (antibody, human IgG1, kappa)
heavy: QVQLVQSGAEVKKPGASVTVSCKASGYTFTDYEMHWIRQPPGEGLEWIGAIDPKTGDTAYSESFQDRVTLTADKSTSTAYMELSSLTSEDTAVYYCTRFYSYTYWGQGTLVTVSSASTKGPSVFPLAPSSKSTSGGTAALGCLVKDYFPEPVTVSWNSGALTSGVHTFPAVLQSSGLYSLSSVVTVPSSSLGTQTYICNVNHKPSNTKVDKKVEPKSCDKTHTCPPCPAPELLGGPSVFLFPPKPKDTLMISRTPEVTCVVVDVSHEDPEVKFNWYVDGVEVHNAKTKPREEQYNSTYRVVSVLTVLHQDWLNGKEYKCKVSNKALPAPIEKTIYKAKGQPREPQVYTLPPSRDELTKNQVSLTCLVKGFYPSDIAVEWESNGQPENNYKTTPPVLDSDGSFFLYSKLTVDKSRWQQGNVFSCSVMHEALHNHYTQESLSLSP
light: B1 light
notes: also called Ho Ab S337_15Y
B18: GpH7-B3 variant S324_08L/GpL16-k0 (antibody, human IgG1, kappa)
heavy: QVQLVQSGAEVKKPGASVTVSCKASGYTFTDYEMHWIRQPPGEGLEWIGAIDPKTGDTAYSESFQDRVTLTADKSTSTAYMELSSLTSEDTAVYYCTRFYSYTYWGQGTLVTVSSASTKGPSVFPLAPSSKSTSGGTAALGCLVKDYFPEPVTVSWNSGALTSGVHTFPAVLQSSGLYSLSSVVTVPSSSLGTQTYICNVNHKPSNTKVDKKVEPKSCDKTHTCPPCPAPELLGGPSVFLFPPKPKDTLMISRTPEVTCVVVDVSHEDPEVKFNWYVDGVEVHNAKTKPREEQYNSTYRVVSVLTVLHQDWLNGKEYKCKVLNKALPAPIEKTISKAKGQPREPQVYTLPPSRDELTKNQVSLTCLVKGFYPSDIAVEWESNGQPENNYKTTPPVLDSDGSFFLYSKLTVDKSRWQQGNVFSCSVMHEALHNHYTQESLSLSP
light: B1 light
notes: also called Ho Ab S324_08L
B19: GpH7-B3 variant T335_05P/GpL16-k0 (antibody, human IgG1, kappa)
heavy: not shown
light: B1 light
notes: also called Ho Ab T335_05P
B20: GpH7-B3 variant T335_12R/GpL16-k0 (antibody, human IgG1, kappa)
heavy: not shown
light: B1 light
notes: also called Ho Ab T335_12R
B21: GpH7-B3 variant S337_01G/GpL16-k0 (antibody, human IgG1, kappa)
heavy: not shown
light: B1 light
notes: also called Ho Ab S337_01G
B22: GpH7-B3 variant T335_04F/GpL16-k0 (antibody, human IgG1, kappa)
heavy: not shown
light: B1 light
notes: also called Ho Ab T335_04F
B23: GpH7-B3 variant S337_08L/GpL16-k0 (antibody, human IgG1, kappa)
heavy: not shown
light: B1 light
notes: also called Ho Ab S337_08L
B24: GpH7-B3 variant S298_08L/GpL16-k0 (antibody, human IgG1, kappa)
heavy: not shown
light: B1 light
notes: also called Ho Ab S298_08L
B25: GpH7-B3 variant T335_09D/GpL16-k0 (antibody, human IgG1, kappa)
heavy: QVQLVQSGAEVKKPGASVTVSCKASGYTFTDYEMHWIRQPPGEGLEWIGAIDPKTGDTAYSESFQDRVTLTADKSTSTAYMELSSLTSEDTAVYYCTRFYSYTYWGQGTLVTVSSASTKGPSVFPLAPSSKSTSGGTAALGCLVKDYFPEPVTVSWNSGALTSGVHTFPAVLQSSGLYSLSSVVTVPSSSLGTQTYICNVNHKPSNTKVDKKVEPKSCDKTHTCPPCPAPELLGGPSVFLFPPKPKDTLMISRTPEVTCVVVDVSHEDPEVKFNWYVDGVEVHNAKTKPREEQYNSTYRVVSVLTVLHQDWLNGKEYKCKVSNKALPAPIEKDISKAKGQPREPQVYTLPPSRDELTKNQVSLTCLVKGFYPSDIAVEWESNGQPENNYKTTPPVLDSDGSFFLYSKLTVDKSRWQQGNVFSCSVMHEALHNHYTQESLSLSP
light: B1 light
notes: also called Ho Ab T335_09D
B26: GpH7-B3 variant S324_15Y/GpL16-k0 (antibody, human IgG1, kappa)
heavy: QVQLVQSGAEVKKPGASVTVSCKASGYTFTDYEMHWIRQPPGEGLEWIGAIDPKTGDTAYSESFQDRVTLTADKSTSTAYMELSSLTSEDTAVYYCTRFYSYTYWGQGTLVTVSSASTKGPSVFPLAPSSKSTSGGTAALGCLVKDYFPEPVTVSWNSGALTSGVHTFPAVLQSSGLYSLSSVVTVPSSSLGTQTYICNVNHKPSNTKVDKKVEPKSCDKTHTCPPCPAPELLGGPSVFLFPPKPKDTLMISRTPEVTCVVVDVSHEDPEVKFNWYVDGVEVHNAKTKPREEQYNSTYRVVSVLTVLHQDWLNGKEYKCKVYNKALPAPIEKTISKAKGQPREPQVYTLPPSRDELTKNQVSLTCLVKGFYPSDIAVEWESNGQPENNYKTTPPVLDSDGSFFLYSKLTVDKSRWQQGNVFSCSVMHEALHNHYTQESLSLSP
light: B1 light
notes: also called Ho Ab S324_15Y
B27: GpH7-B3 variant S337_10E/GpL16-k0 (antibody, human IgG1, kappa)
heavy: not shown
light: B1 light
notes: also called Ho Ab S337_10E
B28: GpH7-B3 variant S337_02A/GpL16-k0 (antibody, human IgG1, kappa)
heavy: not shown
light: B1 light
notes: also called Ho Ab S337_02A

What was measured:
FcγRIa [1] = target: T1, FcγRIa (human, UniProt P12314 16-292); assay: SPR (Biacore); Ho Ab vs HoCon Ab GpH7-B3/GpL16-k0
T1 construct: extracellular domain; Soluble extracellular domain expressed in FreeStyle293 cells, used as analyte in Biacore; also called FcgRI; 1a; not shown: His tag attached to the C terminus
T1 sequence (P12314 16-292): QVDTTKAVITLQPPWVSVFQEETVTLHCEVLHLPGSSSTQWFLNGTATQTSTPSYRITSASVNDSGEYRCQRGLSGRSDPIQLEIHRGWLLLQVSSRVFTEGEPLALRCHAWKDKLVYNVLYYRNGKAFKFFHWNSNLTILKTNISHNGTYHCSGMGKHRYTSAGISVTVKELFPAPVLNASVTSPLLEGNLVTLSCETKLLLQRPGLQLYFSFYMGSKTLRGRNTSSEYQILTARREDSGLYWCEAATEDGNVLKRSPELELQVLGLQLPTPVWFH
Method: (§1) Analysis of interaction between objective antibody and the FcγR was carried out using Biacore T100 (GE Healthcare). HBS-EP+ (GE Healthcare) was used as the running buffer, and the measurement temperature was set to 25° C. Chips produced by immobilizing the antigen peptide by the amine coupling method to a Series S Sencor Chip CM5 (GE Healthcare), or alternatively, chips produced by allowing preliminarily biotinylated antigen peptides to interact with and immobilize onto a Series S Sensor Chip SA (certified) (GE Healthcare) were used. Antibodies of interest were captured onto an antigen peptide-immobilized chip, and allowed to interact to each FcγR diluted with running buffer. To regenerate and repeatedly use the chip, the antibodies captured on the chip were washed off by reacting 10 mM glycine-HCl, pH 1.5.

FcγRIa [2] = target: T1, FcγRIa; assay: SPR (Biacore); He Ab vs HeCon Ab GpH7-A5/GpH7-B3/GpL16-k0
Method: as §1

Ho/Con_1a (FcγRIa [1])	He/Con_1a (FcγRIa [2])	Binder
107 relative binding, control = 100	–	B1
112 relative binding, control = 100	–	B2
71.5 relative binding, control = 100	–	B3
106 relative binding, control = 100	–	B4
–	102 relative binding, control = 100	B5
105 relative binding, control = 100	–	B6
105 relative binding, control = 100	–	B7
111 relative binding, control = 100	–	B8
103 relative binding, control = 100	–	B9
106 relative binding, control = 100	–	B10
91.2 relative binding, control = 100	–	B11
–	103 relative binding, control = 100	B12
106 relative binding, control = 100	–	B13
103 relative binding, control = 100	–	B14
–	102 relative binding, control = 100	B15
105 relative binding, control = 100	–	B16
104 relative binding, control = 100	–	B17
103 relative binding, control = 100	–	B18
106 relative binding, control = 100	–	B19
106 relative binding, control = 100	–	B20
102 relative binding, control = 100	–	B21
105 relative binding, control = 100	–	B22
105 relative binding, control = 100	–	B23
104 relative binding, control = 100	–	B24
107 relative binding, control = 100	–	B25
112 relative binding, control = 100	–	B26
104 relative binding, control = 100	–	B27
103 relative binding, control = 100	–	B28
